{
  "source": "paper PMC10060833",
  "biological_target": "recombinant HAdV55 fiber protein (human adenovirus type 55 (HAdV55))",
  "experiment": "SDS-PAGE without heating or reducing agent; purified recombinant fiber in loading buffer with 10% SDS, without beta-ME, kept at room temperature for 5 min (\"Non-reducing\")",
  "data": [
    {"substance": "recombinant HAdV55 fiber protein (natural protein)", "values": [
      {"measurement": "stoichiometry N", "value": 3}
    ]}
  ]
}
